Source: PMC5122161, “Novel prokaryotic expression of thioredoxin-fused insulinoma associated protein tyrosine phosphatase 2 (IA-2), its characterization and immunodiagnostic application” (BMC Biotechnology, 2016)

Target: the molecule itself
Test: SEC; Superdex 75 HR 10/30, PBS as mobile phase, room temperature, 1.0 mL/min, 50 ug/500 uL purified TrxIA-2ic injected; calibration with globular standards; eluted fractions identified by western blot with rabbit serum to IA-2

B1: intracellular domain of IA-2 fused to thioredoxin (TrxIA-2ic) (domain or fragment, human, UniProt Q16849 604-979, looked up)
chain: ARQQDKERLAALGPEGAHGDTTFEYQDLCRQHMATKSLFNRAEGPPEPSRVSSVSSQFSDAAQASPSSHSSTPSWCEEPAQANMDISTGHMILAYMEDHLRNRDRLAKEWQALCAYQAEPNTCATAQGEGNIKKNRHPDFLPYDHARIKLKVESSPSRSDYINASPIIEHDPRMPAYIATQGPLSHTIADFWQMVWESGCTVIVMLTPLVEDGVKQCDRYWPDEGASLYHVYEVNLVSEHIWCEDFLVRSFYLKNVQTQETRTLTQFHFLSWPAEGTPASTRPLLDFRRKVNKCYRGRSCPIIVHCSDGAGRTGTYILIDMVLNRMAKGVKEIDIAATLEHVRDQRPGLVRSKDQFEFALTAVAEEVNAILKALPQ
notes: insulinoma associated protein tyrosine phosphatase 2 (IA-2), human, intracellular domain IA-2ic, residues 604 to 979 of the 979-residue protein; codon-optimised synthetic gene adapted from GenBank L18983.1; Thioredoxin was not removed; also called thioredoxin-fused insulinoma associated protein tyrosine phosphatase 2; not shown: thioredoxin (E. coli), N-terminal, kept
stoichiometry N: 2
